Reference: JP2005515752A (dated 2005)

T1: 可溶性ヒトRANKL蛋白質 (human, UniProt O14788 140-317, limits assumed, biotinylated with NHS-biotin at 20:1 molar ratio in the competition ELISA (sites not given); not biotinylated in the cell assays)
T1 construct: Soluble form; also called shRANKL; sRANKL
T1 sequence (looked up): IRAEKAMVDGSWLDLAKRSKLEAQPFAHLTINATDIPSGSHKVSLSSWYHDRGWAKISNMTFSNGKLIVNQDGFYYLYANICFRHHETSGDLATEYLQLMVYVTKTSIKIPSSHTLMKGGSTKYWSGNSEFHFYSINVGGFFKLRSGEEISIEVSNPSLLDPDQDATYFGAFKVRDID


Tests used:
[1] = biological target: T1, 可溶性ヒトRANKL蛋白質; experiment: competition ELISA: inhibition of biotinylated shRANKL binding to coated RANK-Fc
[2] = biological target: T1, 可溶性ヒトRANKL蛋白質; experiment: cell-based or functional assay
[3] = biological target: T1, 可溶性ヒトRANKL蛋白質; experiment: competition ELISA: soluble competitor against biotinylated shRANKL binding to coated RANK-Fc
[4] = biological target: T1, 可溶性ヒトRANKL蛋白質; experiment: not described in an example; paragraph 39 names optical biosensor analysis for the Kd

IC50 [1] [nM]	IC50, osteoclast formation from mouse bone marrow cells stimulated by human sRANKL (TRAP-positive cells per well) [2] [µg/mL]	concentration of complete inhibition, osteoclast formation from mouse bone marrow cells stimulated by human sRANKL [2] [µg/mL]	IC50 [3] [nM]	IC50, osteoclast formation from human monocytes with human soluble RANKL and M-CSF (multinucleated cells) [2] [µg/mL]	Kd [4] [nM]	Binder
~0.5	~0.2	1	–	–	–	OPG−Fc (Fc fusion, UniProt O00300 22-201, looked up, also called osteoprotegerin-Fc; not shown: Fc part; not described) ETFPPKYLHYDEETSHQLLCDKCPPGTYLKQHCTAKWKTVCAPCPDHYYTDSWHTSDECLYCSPVCKELQYVKQECNRTHNRVCECKEGRYLEIEFCLKHRSCPPGFGVVQAGTPERNTVCKRCPDGFFSNETSSKAPCRKHTNCSVFGLLLTQKGNATHDNICSGNSESTQKCGIDVTL
–	–	10	~6	~0.5	–	ヒトRANK−Fc融合蛋白質 (Fc fusion, human, UniProt Q9Y6Q6 30-212, looked up, Construct limits and Fc not described; also called RANK−Fc蛋白質; not shown: Fc part) IAPPCTSEKHYEHLGRCCNKCEPGKYMSSKCTTTSDSVCLPCGPDEYLDSWNEEDKCLLHKVCDTGKALVAVVAGNSTTPRRCACTAGYHWSQDCECCRRNTECAPGLGAQHPLQLNKDTVCKPCLAGYFSDAFSSTDKCRPWTNCTFLGKRVEHHGTEKSDAVCSSSLPARKPPNEPHVYLP
~2	~0.2	1	–	~4	~0.1	マウスモノクローナル抗体14F3 (antibody, V domains shown, Murine IgG2a/kappa purified from hybridoma; also called RANKL mAb 14F3; mAb14F3) VH: EVQLVESGGDLVKPGGSLKLSCAASGFTFSRYGMSWVRQTPDKRLEWVATISSGGSYTYYPDSVKGRFTISRDNAKNTLYLQMSSLKSEDTAMYYCARLDGYNYRWYFDVWGTGTTVTVSS VL: DIVMTQSHKFMSTSVGDRVSITCKASQDVSSAVAWYQQKPGQSPKLLIYSASYRYTGVPDRFTGSGSGTDFTFTISSVQAEDLAVYYCQQHYSSPRTFGGGTNLEIKR
